Assay results from PMC10786891, “Massively parallel profiling of RNA-targeting CRISPR-Cas13d”.
Residue numbers refer to the chain shown, from its start. Numbers in names are those of the source.

T1: EsCas13d, nuclease-dead (Eubacterium siraeum, UniProt B0MS50, R295A;H300A;R849A;H854A)
T1 sequence: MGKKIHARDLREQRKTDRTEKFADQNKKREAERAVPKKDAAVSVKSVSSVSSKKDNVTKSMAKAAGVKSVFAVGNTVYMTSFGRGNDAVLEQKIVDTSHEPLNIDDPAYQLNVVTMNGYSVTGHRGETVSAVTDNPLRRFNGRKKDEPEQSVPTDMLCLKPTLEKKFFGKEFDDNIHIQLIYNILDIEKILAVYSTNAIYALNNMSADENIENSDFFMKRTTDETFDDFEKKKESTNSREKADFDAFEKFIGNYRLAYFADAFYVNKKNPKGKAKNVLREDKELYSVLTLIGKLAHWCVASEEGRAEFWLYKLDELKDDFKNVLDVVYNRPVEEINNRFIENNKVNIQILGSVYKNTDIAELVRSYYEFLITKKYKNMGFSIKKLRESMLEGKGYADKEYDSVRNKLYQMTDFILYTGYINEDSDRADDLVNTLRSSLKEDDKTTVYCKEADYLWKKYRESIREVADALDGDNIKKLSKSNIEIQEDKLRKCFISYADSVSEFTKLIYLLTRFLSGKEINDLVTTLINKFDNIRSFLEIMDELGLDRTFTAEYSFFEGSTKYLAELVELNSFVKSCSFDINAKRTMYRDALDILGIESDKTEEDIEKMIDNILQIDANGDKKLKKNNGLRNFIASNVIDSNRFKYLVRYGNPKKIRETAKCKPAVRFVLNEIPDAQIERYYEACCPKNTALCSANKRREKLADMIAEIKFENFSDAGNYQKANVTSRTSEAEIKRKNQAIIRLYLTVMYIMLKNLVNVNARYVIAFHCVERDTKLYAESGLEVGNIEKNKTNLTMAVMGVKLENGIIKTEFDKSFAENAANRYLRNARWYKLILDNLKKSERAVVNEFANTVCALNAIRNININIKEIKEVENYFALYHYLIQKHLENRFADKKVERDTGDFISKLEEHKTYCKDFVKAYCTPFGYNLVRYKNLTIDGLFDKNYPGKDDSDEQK

B1: target 2 MT 5'PFS GCG 3'PFS CAU (mixed)
RNA 1: CACCCGUGCAAAAUUGCAGGGGUCUAAAACCUUCUCCAAAUUGUUUCAUCCU
RNA 2: GGGAAUGGAUCCACAUCUACGAAUUCGCGAGGAUGAAACAAUUUGGAGAAGCAUAGAUCGGAAGAGCACACGU
B2: target 2 MT 5'PFS CGG 3'PFS UAA (mixed)
RNA 1: B1 RNA 1
RNA 2: B1 RNA 2 with G27C, C28G, C52U, U54A
B3: target 2 MT 5'PFS GCG 3'PFS CAA (mixed)
RNA 1: B1 RNA 1
RNA 2: B1 RNA 2 with U54A
B4: target 2 MT 5'PFS AGC 3'PFS UAU (mixed)
RNA 1: B1 RNA 1
RNA 2: B1 RNA 2 with G27A, C28G, G29C, C52U
B5: target 2 MT 5'PFS GCU 3'PFS AUU (mixed)
RNA 1: B1 RNA 1
RNA 2: B1 RNA 2 with G29U, C52A, A53U
B6: target 2 MT 5'PFS UCA 3'PFS UCA (mixed)
RNA 1: B1 RNA 1
RNA 2: B1 RNA 2 with G27U, G29A, C52U, A53C, U54A
B7: target 2 MT 5'PFS CUC 3'PFS UAA (mixed)
RNA 1: B1 RNA 1
RNA 2: B1 RNA 2 with G27C, C28U, G29C, C52U, U54A
B8: target 2 MT 5'PFS GAG 3'PFS UAA (mixed)
RNA 1: B1 RNA 1
RNA 2: B1 RNA 2 with C28A, C52U, U54A
B9: target 2 MT 5'PFS GGG 3'PFS AAA (mixed)
RNA 1: B1 RNA 1
RNA 2: B1 RNA 2 with C28G, C52A, U54A
B10: target 2 MT 5'PFS CUC 3'PFS UAU (mixed)
RNA 1: B1 RNA 1
RNA 2: B1 RNA 2 with G27C, C28U, G29C, C52U
B11: target 2 MT 5'PFS GCU 3'PFS AUC (mixed)
RNA 1: B1 RNA 1
RNA 2: B1 RNA 2 with G29U, C52A, A53U, U54C
B12: target 2 MT 5'PFS GAG 3'PFS UAG (mixed)
RNA 1: B1 RNA 1
RNA 2: B1 RNA 2 with C28A, C52U, U54G
B13: target 2 MT 5'PFS GAG 3'PFS UUG (mixed)
RNA 1: B1 RNA 1
RNA 2: B1 RNA 2 with C28A, C52U, A53U, U54G
B14: target 2 MT 5'PFS GGG 3'PFS AAU (mixed)
RNA 1: B1 RNA 1
RNA 2: B1 RNA 2 with C28G, C52A
B15: target 2 MT 5'PFS AGC 3'PFS UAA (mixed)
RNA 1: B1 RNA 1
RNA 2: B1 RNA 2 with G27A, C28G, G29C, C52U, U54A
B16: target 2 MT 5'PFS CGG 3'PFS UAU (mixed)
RNA 1: B1 RNA 1
RNA 2: B1 RNA 2 with G27C, C28G, C52U
B17: target 2 MT 5'PFS GAG 3'PFS UAC (mixed)
RNA 1: B1 RNA 1
RNA 2: B1 RNA 2 with C28A, C52U, U54C
B18: target 2 MT 5'PFS GCG 3'PFS CAG (mixed)
RNA 1: B1 RNA 1
RNA 2: B1 RNA 2 with U54G
B19: target 2 MT 5'PFS AGC 3'PFS UAC (mixed)
RNA 1: B1 RNA 1
RNA 2: B1 RNA 2 with G27A, C28G, G29C, C52U, U54C
B20: target 2 MT 5'PFS CUC 3'PFS UAC (mixed)
RNA 1: B1 RNA 1
RNA 2: B1 RNA 2 with G27C, C28U, G29C, C52U, U54C
B21: target 2 MT 5'PFS GGG 3'PFS AAG (mixed)
RNA 1: B1 RNA 1
RNA 2: B1 RNA 2 with C28G, C52A, U54G
B22: target 2 MT 5'PFS GCU 3'PFS AUA (mixed)
RNA 1: B1 RNA 1
RNA 2: B1 RNA 2 with G29U, C52A, A53U, U54A
B23: target 2 MT 5'PFS GCU 3'PFS AUG (mixed)
RNA 1: B1 RNA 1
RNA 2: B1 RNA 2 with G29U, C52A, A53U, U54G
B24: target 2 MT 5'PFS GCG 3'PFS CAC (mixed)
RNA 1: B1 RNA 1
RNA 2: B1 RNA 2 with U54C
B25: target 2 MT 5'PFS GGG 3'PFS AAC (mixed)
RNA 1: B1 RNA 1
RNA 2: B1 RNA 2 with C28G, C52A, U54C
B26: target 2 MT 5'PFS AGC 3'PFS AGU (mixed)
RNA 1: B1 RNA 1
RNA 2: B1 RNA 2 with G27A, C28G, G29C, C52A, A53G
B27: target 2 MT 5'PFS GUU 3'PFS AGU (mixed)
RNA 1: B1 RNA 1
RNA 2: B1 RNA 2 with C28U, G29U, C52A, A53G
B28: target 2 MT 5'PFS CGG 3'PFS UAC (mixed)
RNA 1: B1 RNA 1
RNA 2: B1 RNA 2 with G27C, C28G, C52U, U54C
B29: target 2 MT 5'PFS GAG 3'PFS UUA (mixed)
RNA 1: B1 RNA 1
RNA 2: B1 RNA 2 with C28A, C52U, A53U, U54A
B30: target 2 MT 5'PFS CUC 3'PFS UAG (mixed)
RNA 1: B1 RNA 1
RNA 2: B1 RNA 2 with G27C, C28U, G29C, C52U, U54G
B31: target 1 insG 3' of 1,insG 3' of 1 (mixed)
RNA 1: CACCCGUGCAAAAAUGCAGGGGUCUAAAACUGAGCGGAUAACCUCUCUAUGG
RNA 2: GGGAAUGGAUCCACAUCUACGAAUUCGUACCAUAGAGAGGUUAUCCGCUCAGGCCGAGAUCGGAAGAGCACACGU
B32: target 1 insG 3' of 4,insU 3' of 1 (mixed)
RNA 1: B31 RNA 1
RNA 2: B31 RNA 2 with U49G, C50U, A51C, G52A, G53U
B33: target 1 C2A,C4G (mixed)
RNA 1: B31 RNA 1
RNA 2: GGGAAUGGAUCCACAUCUACGAAUUCGUACCAUAGAGAGGUUAUCCGGUAACCGAGAUCGGAAGAGCACACGU

These binders were tested against T1, EsCas13d, nuclease-dead (assay: crRNA (strand 1, pre-loaded); Mg2+; 40 mM Tris-HCl pH 7.5, 150 mM NaCl, 6 mM MgCl2, 1 mM DTT, 0.1% Tween-20, 0.2 mg/ml BSA; 25 C; 10 min per concentration, then washed). Conditions: tags: His6-TwinStrep-SUMO cleaved; N-terminal SNAP kept (SNAP-Surface 488); label: 3' end held by stalled T7 RNA polymerase.

Binder | Kd [nM]
B1 | 13 ± 4
B2 | 4.4 ± 0.7
B3 | 9.7 ± 1.9
B4 | 8.9 ± 1.3
B5 | 15 ± 4
B6 | 4.3 ± 0.7
B7 | 2.05 ± 0.35
B8 | 5.1 ± 0.7
B9 | 6.7 ± 0.9
B10 | 1.99 ± 0.13
B11 | 14.5 ± 2.8
B12 | 6.2 ± 0.7
B13 | 8.5 ± 1
B14 | 6.2 ± 0.6
B15 | 8.7 ± 1.7
B16 | 5 ± 0.8
B17 | 10.6 ± 1.7

Binder | Kd [nM]
B18 | 9.4 ± 0.9
B19 | 10.5 ± 2.3
B20 | 2.32 ± 0.23
B21 | 8.9 ± 1
B22 | 8.9 ± 1.1
B23 | 22 ± 6
B24 | 10.4 ± 1.3
B25 | 8.7 ± 1
B26 | 10.2 ± 1.6
B27 | 9.9 ± 0.8
B28 | 5.3 ± 0.6
B29 | 14.2 ± 2.2
B30 | 3.4 ± 0.6
B31 | 8.6 ± 0.5
B32 | 9.1 ± 0.4
B33 | 12 ± 0.6
